Test results published in paper PMC6059731 (Science Advances, 2018).
Ends that are not written are not given here.

Target: the molecule itself
Experiment: SEC-SAXS

GIGDPVTCLKSGAICHPVFCPRRYKQIGTCGLPGTKCCKKP (natural protein, UniProt O15263 24-64, looked up, ends and bridges not checked; cysteine pairing not given here) [Human β-defensin 2 (HBD-2)]
monomer/dimer ratio (dimer part of 70:30): 30
